Test results: PMC6764946, “Non-enzymatic roles of human RAD51 at stalled replication forks”

Experiments:
hsRAD51-WT = hsRAD51-WT (Homo sapiens, UniProt Q06609 1-339); test: fluorescence polarization; 1 mM ATP, 1 mM MgCl2, 50 uM CaCl2; apparent Kd; 25 mM Tris-HCl pH 7.8, 1 mM MgCl2, 1 mM ATP, 1 mM DTT, 50 mM NaCl (printed NaCl2), 50 uM CaCl2, 100 ug/ml BSA, 37 C, 30 min; 2.4 nM oligo, RAD51 10-1000 nM; settings: protein: recombinant; tags: C-terminal His6; label: 5' Alexa Fluor 488 (Methods; legend says fluorescein); single strand
hsRAD51-II3A = hsRAD51-II3A (Homo sapiens, UniProt Q06609 1-339, R130A;R303A;K313A); test: fluorescence polarization; 1 mM ATP, 1 mM MgCl2, 50 uM CaCl2; apparent Kd; modest binding defect; 25 mM Tris-HCl pH 7.8, 1 mM MgCl2, 1 mM ATP, 1 mM DTT, 50 mM NaCl (printed NaCl2), 50 uM CaCl2, 100 ug/ml BSA, 37 C, 30 min; 2.4 nM oligo, RAD51 10-1000 nM; settings: protein: recombinant; tags: C-terminal His6; label: 5' Alexa Fluor 488 (Methods; legend says fluorescein); single strand
hsRAD51-II3A, sequence (Q06609 whole entry R130A/R303A/K313A): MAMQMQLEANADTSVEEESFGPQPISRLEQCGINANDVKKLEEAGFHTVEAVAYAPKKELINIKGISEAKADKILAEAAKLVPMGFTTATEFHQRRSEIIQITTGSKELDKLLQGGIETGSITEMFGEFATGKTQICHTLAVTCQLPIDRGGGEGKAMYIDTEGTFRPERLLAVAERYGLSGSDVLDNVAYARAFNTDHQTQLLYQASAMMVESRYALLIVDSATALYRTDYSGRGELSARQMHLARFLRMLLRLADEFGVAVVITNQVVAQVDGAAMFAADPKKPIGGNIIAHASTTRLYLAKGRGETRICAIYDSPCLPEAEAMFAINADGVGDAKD

hsRAD51-WT, sequence (Q06609 whole entry): as the sequence (Q06609 whole entry R130A/R303A/K313A) above, with A130R, A303R, A313K counted along it

B1: 84-mer ssDNA (ssDNA)
DNA: GGTAGCGGTTGGGTGAGTGGTGGGGAGGGTCGGGAGGTGGCGTAGAAACATGATAGGAATGTGAATGAATGAAGTACAAGTAAA
Work on B1 yielded a Kd (hsRAD51-WT) of 57 ± 1 nM and a Kd (hsRAD51-II3A) of 132 ± 5 nM.
